Assay results from US20220195015A1 (published 2022).

B1: C570 (antibody, V domains shown)
VH: QVQLQESGPGLVKPSETLSLTCTVSGASISSYYWSWIRQPPGKGLEWIGYIYYSGSTNYNPSLKSRVTISLDTSKNQFSLQLSSVTAADTAVYYCATYYFDNSGYSYGLDVWGQGTTVTVSS
VL: DIQMTQSPSSLSASVGDRVTIACRASQSISSYLHWYQQQPGKAPKLLIYAVTNLQSGVPSRFSGSGSGTDFTLTISSLQPEDFATYYCQQSYSLPQTFGQGTKVEIK
B2: C569 (antibody, V domains shown)
VH: QVQLVESGGNVVQPGRSLRLSCAASGFTFSNYGMHWIRQAPGKGLEWVAVISYDGSDKYYADSVKGRVTISRDNSKNTLYLQMNSLRAEDTAVYYCAKGGPYGDHVRSDYWGLGTLVTVSS
VL: DIQMTQSPSSLSASVGDRVTITCQASQDISNYLNWYQQKPGKVPKLLIYDASNLETGVPSRFSGSGSGTDFTFTISSLQPEDIATYYCQQFHNLPLTFGQGTKLEIK
B3: C707 (antibody, V domains shown)
VH: EVQLVESGGGLVKPGGSLRLSCAASGFTFSSYSMNWVRQAPGKGLAWVSSISSSNNIIYYADSVKGRFTISRDDAKDSLYLHMKSLRADDTAVYFCARVPSWAPYQLLPGPFDYWGQGILVTVSS
VL: IRMTQSPSSLSASVGDRVTITCQASQAIASYLSWYQHKPGRAPKLLIYDASNLEIGVPSRFSGSGSGTDFTFTISSLQSEDNATYYCQQYESLPGTFGGGTKVEIK
B4: C708 (antibody, V domains shown)
VH: EVQLVESGGGLVQPGGSLRLSCAASGFSFSTYWMSWVRQAPGKGLEWVADIKQDGSEKYFVDSVKGRFTISRDNAKNSLYLHLNSLRAEDTAVYYCAREMAGSGNYYWFGYGMDVWGQGTTVTVSS
VL: IRMTQSPSSVSASVGDRVTITCRASQGISSWLAWYQQKPGKAPKLLIYAASSLQSGVPSRFSGSESGTDFTLTISSLQPEDFATYYCQQANSFPLTFGGGTKVEIK
B5: C567 (antibody, V domains shown)
VH: QVQLQESGPGLVKPSETLSLTCTVSGGSVINGSYYWSWIRQPPGKGLEWIGFVYYSGSTNYNPSLKSRVTISVDTSKNQFSLNLNSVTAADTAVYYCATGSKSSYYFDYWGQGTLVTVSS
VL: QSVLTQPPSVSAAPGQKVTISCSGSSSNIGNNYVSWYQQLPGAAPKLLIYENNMRPSGIPDRFSGSKSGTSATLGITGLQTGDEADYYCGTWDSSLSVPYVFGTGTRVTVL
B6: C703 (antibody, V domains shown)
VH: EVQLLESGGGLVQPGGSLRLSCAGSGFTFSHYALSWVRQAPGKGLEWVSCISGTGGNSHYADSVKGRFTSSRDNSKNILYLQMNSLRAEDTAVYFCAKGGDFWSGYLIPFDSWGQGTLVTVSS
VL: SYELTQSPSVSVAPGKTARITCGGDSIGSKNVHWYQQKPGQAPVLVMYYDNDRPSGIPERFSGYNSGNTATLSISRVEAGDEADYYCLVWDGSGDPWVFGGGTKLTVL
B7: C578 (antibody, V domains shown)
VH: QVQLVESGGGVVQPGRSLRLSCAASGFTFSSSGMHWVRQAPGKGLEWVAIISYDGSNKYYADSVKGRFTISRDNSKNTLSLQMNSLRAEDTAVYYCAKDPLPFRDFFYYYMDVWGKGTTVTVSS
VL: QSALTQPASVSGSPGQSITISCTGTSSDVGGYNYVSWYQQHPGKAPKLMIYDVSNRPSGVSNRFSGSKSGNTASLTISGLQAEDEADYYCSSYTSSSTLGVFGTGTKVTVL
B8: C565 (antibody, V domains shown)
VH: EVQLVESGGGLIQPGGSLRLSCAASGLIVSSNYMNWVRQAPGKGLEWVSLLYSGGSTYYADSVKGRFTISRDNSKNTLYLQMNSLRPEDTAVYYCARDLSVVGAFDIWGQGTMVTVSS
VL: EIVLTQSPGTLSLSPGERATLSCRASQSLPSTYLAWYQQKRGQAPRLLIYGASSRATGIPDRFSGSGSGTDFTLTISRLEPEDFAVYYCQQYGTSPRVTFGPGTKVDIK
B9: C580 (antibody, V domains shown)
VH: EVQLVQSGAEVKKAGESLKISCNSSGYSFTNYWIAWVRQVPGKGLEWMGIIYLGDSDTRYSPSFQGRVTISADKSISAAYLHWSSLKASDTAIYYCARGGPPGGVKLELTDFWGQGTLVTVSS
VL: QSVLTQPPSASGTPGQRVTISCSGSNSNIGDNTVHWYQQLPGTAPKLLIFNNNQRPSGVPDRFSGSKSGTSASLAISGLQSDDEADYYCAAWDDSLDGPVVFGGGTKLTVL
B10: C576 (antibody, V domains shown)
VH: QVQLVQSGAEVKKPGSSVKVSCKASGGTFSIYAISWVRQAPGQGLEWMGGIIPILGTANYAQKFQGRVTITADESTSTAYMELSSLRSEDTAVYYCASFHVAYGDYIPFDYWGQGTLVTVSS
VL: not shown
B11: C049 (antibody, V domains shown)
VH: QVQLQESGPGLVKPSETLSLTCTVSGGSVSSGTFYWSWIRQPPGKGLEWIGYIHYSGSTNYNPSLKSRVTISVDTSKNQFSLRLSSVTAADTAVYYCARESFYYDRSGYYGSDAFDIWGQGTMVTVSS
VL: DIQMTQSPSTLSSSVGDRVTITCRASQNISRWLAWYQQKPGKAPKLLIYKASTLESGVPSRFSGSGSGTKFTLTISSLQPDDFATYYCQQYNSYLYTFGQGTKLEIK
B12: C568 (antibody, V domains shown)
VH: QVQLVQSGAEVKKPGASVKVSCTASGYTFSSYYIHWVRQAPGQGLEWMGIINPGAGSTSYAQKFQGRVAMTTDTSTRTVYMELSSLRSDDTAVYYCARDEAFLPSAIFVGDYWGQGTLVTVSS
VL: DIQMTQSPSSLSASVGDRVTITCRASQGIRNDLGWYQQKPGKAPKRLIYAASNLQSGVPSRFSGSGSGTEFTLTISSLQPEDFATYYCLQHSTYPHTWTFGQGTKVEIK
B13: C574 (antibody, V domains shown)
VH: QVQLVQSGAEVKKPGASVKVSCKASGYTFTSYGFSWVRQAPGQGLEWLGWISAYNGNTNYAQKLQGRVTMTTDTSTSTAYMELRSLRSDDTAVYYCARAIAVAGTSGEFDYWGQGTLVTVSS
VL: not shown
B14: C704 (antibody, V domains shown)
VH: VQLVESGGGVVQPGRSLRLSCAASGFTFSRYGMHWVRQAPGKGLEWVAVSSYDGSNEYYANSVKGRFTISRDNSKNTLYLQMNSLRAEDTAVYYCAKTGASYCGGDCPFHFDYWGQGTLVTVSS
VL: IRMTQSPSSLSASVGDRVTITCQASQDINNYLNWYQQKPGKAPKLLIYDASDLETGVPSRFSGGGSGTDFTFTISSLQPEDIATYYCQHYNNLPITFGQGTRLEIK
B15: C577 (antibody, V domains shown)
VH: QVQLVQSGAEVKKPGSSVKVSCKASGDTFSIYAFSWVRQAPGQGLQWMGAIIPLLGTTNYAQKFLGRVTITADESTSTTFMELSSLTSEDTAVYHCATFHVAYGDYIPFDSWGQGTLVIVSS
VL: not shown
B16: C706 (antibody, V domains shown)
VH: EVQLVESGGGLVKPGGSLRLSCAASGFTFSNVWMSWVRQAPGKGLEWVGRIKSKIDGGTTEYAAPVKGRFIISRDDSKNTLSLQMNSLKTEDTAVYYCTTDHGREPPVHWGQGTLVTVSS
VL: EIVLTQSPGTLSLSPGERASLSCRARQSVYSNYLAWYQHKSGQAPRLLFYGASSRATDIPDRFSASGSGTDFTLTISRLEPEDFAVYYCLQYGPSPTFGPGTRLEIK
B17: C573 (antibody, V domains shown)
VH: QVQLQESGPGLVKPSGTLSLTCAVSGGSISTVNWWSWVRQPPGKGLEWIGEIHHSGNTNHNPSLRSRVTISVDKSKNQFSLKLRSVTAADTAVYYCARDGGRPGDAFDLWGQGTMVTVSS
VL: QSALTQPASVSGSPGQSITISCTGTSSDVGGYNYVSWYQQHPGKVPKVMIYDVSNRPSGISNRFSGSKSGNTASLTISGLQAEDEADYYCNSYRSNSTRVFGTGTKVTV
B18: C571 (antibody, V domains shown)
VH: EVQLVESGGGLIQPGGSLKLSCVVSGFTVSRNYISWVRQAPGKGLEWVSVLFAGGSTFYADSVKGRFAISRDNSNNTLFLQMNSLRVEDTAIYYCARGDGELIFDQWGQGTLVTVSS
VL: QSVLTQPPSVSGAPGQRVTIVCTGTSSNIGAGYDVHWYQQLPGRAPKVLVSGNNIRPSEVPDRFSGSRSGTSASLAITSLQPEDEAQYYCQSYDSNLYAVFGGGTKLTVL
B19: C566 (antibody, V domains shown)
VH: QVQLQESGPGLVKSSQTLSLNCSVFGASISSGGYYWTWIRQHPGKGLEWIGYIHYRGTYYNPSLKSRVTMSVDTSKNQFSLKVRSVSAADTAIYYCARAIVVVTLNWFDLWGQGTLVTVSS
VL: NFMLTQPHSVSESPGKTVTISCSGSGGSIASNYVQWYQQRPGSAPTAVIYEDNQRPSGVPDRFSGSIDSSSNSASLTISGLKTEDEADYYCQSYDTSNPVIFGGGTKLTV
B20: C581 (antibody, V domains shown)
VH: EVQLVQSGAEVKKPGESLKISCKGSGYRFTSYWIAWVRQMPGKGLEWMGIIYPGDSDTRYSPSFQGQVTISADQSISTAYLQWSSLKASDTAMYYCARGGPPGGVKLELTDYWGQGALVTVSS
VL: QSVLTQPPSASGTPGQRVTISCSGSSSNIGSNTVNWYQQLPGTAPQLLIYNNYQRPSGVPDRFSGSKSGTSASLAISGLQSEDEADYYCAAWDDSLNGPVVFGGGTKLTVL
B21: C572 (antibody, V domains shown)
VH: EVQLVESGGGLIKPGRSLRLSCTASGFTFGDYAMTWFRQAPGKGLEWVGFIRSKAYGGTTGYAASVKYRFTISRDDSKSIAYLQMDSLKTEDTAVYYCTRWDGWSQHDYWGQGTLVTVSS
VL: DIVMTQSPLSLSVTPGEPASISCRSSQSLLHSNGNNYFDWYLQKPGQSPQLLIYLASNRASGVPDRFSGSGSGTDFTLKISRVEAEDVGVYYCMQVLQIPYTFGQGTKLEI
B22: C709 (antibody, V domains shown)
VH: QVQLVQSGAEVRKPGASVKVSCMASGYTFNTYDINWVRQGTGQGLEWMGWMNPNSGNTGHAQKFQGRVAMTVNTSMNTAYMELSSLRSEDTAVYYCARGADMLNVAVGADFDYWGQGTLVTVSS
VL: QSALTQPPSASGSPGQSVTISCTGTSSDVGGYNFVSWFQQHPGKAPKLMIYEVSKRPSGVPDRFSGSKSANTASLTVSGLQAEDEADYFCSSYAGSNNWVFGGGTKLTVL
B23: C552 (antibody, V domains shown)
VH: QVQLVESGGGVVQPGRSLRLSCAASGFTFSSYAMHWVRQAPGKGLEWVALISYDGSNKHYADSVKGRFTISRDNSKNTLYLQMNSLRAEDTAVYYCARAGTTNSDYFDYWGQGTLVTVSS
VL: SYELTQPPSVSVAPGKTARITCGGNNIGSKSVHWYQQKPGQAPVLVIYYDTDRPSGIPERFSGSNSGNTATLTISRVEAGDEADYYCQVWDSSSALWVFGGGTKLTVL
B24: C550 (antibody, V domains shown)
VH: EVQLVQSGAEVKKPGESLKISCKGSGYRFTNYWIGWVRQMPGKGLEWMGIIYPGDSDTRYSPSFQGQVTISADKSITTAYLQWSSLKASDTAMYYCARLSDRWYSPFDPWGQGTLVTVSS
VL: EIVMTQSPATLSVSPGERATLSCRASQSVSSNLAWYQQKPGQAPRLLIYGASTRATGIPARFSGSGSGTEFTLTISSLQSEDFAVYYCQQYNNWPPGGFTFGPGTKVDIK

Each binder was assayed against SARS-CoV-2 spike protein receptor binding domain (RBD) (SARS-CoV-2, UniProt P0DTC2 319-539) (assay: ELISA on plate-coated RBD).

Binder | EC50 [ng/mL]
B1 | 0.74
B2 | 11.1
B3 | 26
B4 | 130
B5 | 18.9
B6 | 10.9
B7 | 1.08
B8 | 1.27
B9 | 1.82
B10 | 5.29
B11 | 4.09
B12 | 5.99
B13 | 8.12
B14 | 13.4
B15 | 1.32
B16 | 73.5
B17 | 2.2
B18 | 4.63
B19 | 5.88
B20 | 1.58
B21 | 2.9
B22 | 7.56

These binders were tested against SARS-CoV-2 spike protein receptor binding domain (RBD) (SARS-CoV-2, UniProt P0DTC2 319-539) (assay: ELISA, RBD coated on plate, mAb titrated).

Binder | EC50 [ng/mL]
B23 | 1.08
B24 | 2.56
